Starred links: 1 amine or outer side, 2 acyl side, 3 side chain; linkers in the order of their positions; H or OH if unused. Positions of bridges follow the written chain, without caps; N, C: chain ends. Non-standard residues stand in square brackets, D forms with d. Groups on a side chain read outwards from the residue. *: point of attachment. Trp(1-Me) = Cn1cc(C[C@H](N)C(=O)O)c2ccccc21; C18 diacid = O=C(O)CCCCCCCCCCCCCCCCC(=O)*; C16 diacid = O=C(O)CCCCCCCCCCCCCCC(=O)*; γGlu = O=C(O)[C@H](CCC(=O)[*:2])N[*:1]; AEEA = NCCOCCOCC(=O)O; Sar = CNCC(=O)O
What was measured:
[1] = target: T1, Human C3 (Complement tech cat #A113c) (human, UniProt P01024 23-1663); test: cell-based or functional assay
[2] = target: T1, Human C3 (Complement tech cat #A113c); test: SPR (Biacore T200), human C3 immobilised, peptide injected, 1:1 fit
Protocol: Surface plasmon resonance (SPR) was used to characterize peptides with respect to their binding affinity (Kd) for C3. Human C3 (Complement tech cat #A113c) was immobilised on individual flow cells of CM5 sensor chips (GE Healthcare) using standard amine coupling to a density of approximately 3000 resonance units (RU) in a buffer consisting of 10 mM phosphate pH 7.4, 150 mM NaCl, 0.05% Tween20.
For interaction experiments a multi-cycle experiment approach was used and performed using a BiacoreT200™ instrument (GE Healthcare) at 25° C. Peptides were injected in increasing concentration series (6-8 different concentrations) for 60-120 sat a flow rate of 30 µL/min in a buffer consisting of 10 mM Tris buffer at pH 7.4, with 150 mM NaCl and 0.05% Tween20. This was followed by a dissociation period for up to 10 min. The C3 surface was regenerated between runs by a 45 s injection of 3 M MgCl_2.

T1 sequence (P01024 23-1663 limits assumed): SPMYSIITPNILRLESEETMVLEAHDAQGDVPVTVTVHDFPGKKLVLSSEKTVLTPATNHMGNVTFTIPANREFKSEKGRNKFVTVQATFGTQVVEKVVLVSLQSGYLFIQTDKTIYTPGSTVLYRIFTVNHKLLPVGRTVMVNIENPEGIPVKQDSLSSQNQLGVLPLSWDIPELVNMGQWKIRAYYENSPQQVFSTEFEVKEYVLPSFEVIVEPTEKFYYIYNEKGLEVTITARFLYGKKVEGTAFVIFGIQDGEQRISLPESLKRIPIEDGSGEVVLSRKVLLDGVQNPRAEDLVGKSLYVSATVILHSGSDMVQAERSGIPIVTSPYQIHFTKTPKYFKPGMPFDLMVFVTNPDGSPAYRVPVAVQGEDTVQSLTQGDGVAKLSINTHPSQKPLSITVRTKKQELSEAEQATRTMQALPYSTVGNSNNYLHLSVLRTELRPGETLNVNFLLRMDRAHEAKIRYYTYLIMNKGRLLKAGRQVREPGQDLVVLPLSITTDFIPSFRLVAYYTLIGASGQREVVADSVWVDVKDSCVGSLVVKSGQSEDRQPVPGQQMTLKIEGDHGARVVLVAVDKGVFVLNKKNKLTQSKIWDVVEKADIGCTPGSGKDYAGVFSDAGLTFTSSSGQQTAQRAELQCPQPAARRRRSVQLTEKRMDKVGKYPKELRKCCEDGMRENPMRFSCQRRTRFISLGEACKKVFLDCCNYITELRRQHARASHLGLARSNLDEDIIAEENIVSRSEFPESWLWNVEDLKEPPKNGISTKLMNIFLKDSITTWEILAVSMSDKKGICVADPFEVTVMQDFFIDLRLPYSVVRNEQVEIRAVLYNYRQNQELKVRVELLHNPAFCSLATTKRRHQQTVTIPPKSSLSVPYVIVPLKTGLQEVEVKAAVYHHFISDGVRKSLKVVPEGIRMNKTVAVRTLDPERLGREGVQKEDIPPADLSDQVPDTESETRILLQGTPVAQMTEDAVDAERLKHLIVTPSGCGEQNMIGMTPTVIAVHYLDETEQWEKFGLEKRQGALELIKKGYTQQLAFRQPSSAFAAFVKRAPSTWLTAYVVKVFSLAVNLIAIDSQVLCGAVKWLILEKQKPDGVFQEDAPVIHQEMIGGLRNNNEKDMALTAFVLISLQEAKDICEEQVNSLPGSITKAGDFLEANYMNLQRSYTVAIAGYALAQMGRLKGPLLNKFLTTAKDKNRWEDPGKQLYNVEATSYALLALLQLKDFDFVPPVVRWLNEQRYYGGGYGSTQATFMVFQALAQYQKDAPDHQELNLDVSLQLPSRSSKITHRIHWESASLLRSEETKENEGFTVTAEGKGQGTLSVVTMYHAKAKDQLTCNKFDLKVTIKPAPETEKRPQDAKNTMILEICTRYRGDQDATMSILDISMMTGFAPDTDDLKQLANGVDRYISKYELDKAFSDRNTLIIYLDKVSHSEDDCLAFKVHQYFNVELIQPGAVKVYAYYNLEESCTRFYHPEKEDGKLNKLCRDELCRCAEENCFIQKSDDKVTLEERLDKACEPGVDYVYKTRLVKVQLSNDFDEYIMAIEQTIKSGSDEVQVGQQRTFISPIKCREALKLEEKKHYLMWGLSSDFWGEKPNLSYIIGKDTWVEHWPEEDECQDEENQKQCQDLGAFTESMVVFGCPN

Kd [2] [nM]	Binder	inhibition of hemolysis IC50 [1] [nM]
–	Ac-SE[Sar]CI[Trp(1-Me)]QEW[Sar]EHRCTEA-NH2 (disulfide 4-14; SMILES CC[C@H](C)[C@@H]1NC(=O)[C@@H](NC(=O)CN(C)C(=O)[C@H](CCC(=O)O)NC(=O)[C@H](CO)NC(C)=O)CSSC[C@@H](C(=O)N[C@H](C(=O)N[C@@H](CCC(=O)O)C(=O)N[C@@H](C)C(N)=O)[C@@H](C)O)NC(=O)[C@H](CCCNC(=N)N)NC(=O)[C@H](Cc2c[nH]cn2)NC(=O)[C@H](CCC(=O)O)NC(=O)CN(C)C(=O)[C@H](Cc2c[nH]c3ccccc23)NC(=O)[C@H](CCC(=O)O)NC(=O)[C@H](CCC(N)=O)NC(=O)[C@H](Cc2cn(C)c3ccccc23)NC1=O) [Compound 89]	< 100
1.7	Ac-FCI[Trp(1-Me)]QDWGEHRCTGAESK([AEEA-AEEA-γGlu-C16 diacid])-NH2 (disulfide 2-12; SMILES CC[C@H](C)[C@@H]1NC(=O)[C@@H](NC(=O)[C@H](Cc2ccccc2)NC(C)=O)CSSC[C@@H](C(=O)N[C@H](C(=O)NCC(=O)N[C@@H](C)C(=O)N[C@@H](CCC(=O)O)C(=O)N[C@@H](CO)C(=O)N[C@@H](CCCCNC(=O)COCCOCCNC(=O)COCCOCCNC(=O)CC[C@H](NC(=O)CCCCCCCCCCCCCCC(=O)O)C(=O)O)C(N)=O)[C@@H](C)O)NC(=O)[C@H](CCCNC(=N)N)NC(=O)[C@H](Cc2c[nH]cn2)NC(=O)[C@H](CCC(=O)O)NC(=O)CNC(=O)[C@H](Cc2c[nH]c3ccccc23)NC(=O)[C@H](CC(=O)O)NC(=O)[C@H](CCC(N)=O)NC(=O)[C@H](Cc2cn(C)c3ccccc23)NC1=O) [Compound 102]	< 100
–	Ac-SE[Sar]CI[Trp(1-Me)]QEWGEHRC[Sar]EA-NH2 (disulfide 4-14; SMILES CC[C@H](C)[C@@H]1NC(=O)[C@@H](NC(=O)CN(C)C(=O)[C@H](CCC(=O)O)NC(=O)[C@H](CO)NC(C)=O)CSSC[C@@H](C(=O)N(C)CC(=O)N[C@@H](CCC(=O)O)C(=O)N[C@@H](C)C(N)=O)NC(=O)[C@H](CCCNC(=N)N)NC(=O)[C@H](Cc2c[nH]cn2)NC(=O)[C@H](CCC(=O)O)NC(=O)CNC(=O)[C@H](Cc2c[nH]c3ccccc23)NC(=O)[C@H](CCC(=O)O)NC(=O)[C@H](CCC(N)=O)NC(=O)[C@H](Cc2cn(C)c3ccccc23)NC1=O) [Compound 90]	< 250
–	Ac-GE[Sar]CI[Trp(1-Me)]QDWGEHRCTEA-NH2 (disulfide 4-14; SMILES CC[C@H](C)[C@@H]1NC(=O)[C@@H](NC(=O)CN(C)C(=O)[C@H](CCC(=O)O)NC(=O)CNC(C)=O)CSSC[C@@H](C(=O)N[C@H](C(=O)N[C@@H](CCC(=O)O)C(=O)N[C@@H](C)C(N)=O)[C@@H](C)O)NC(=O)[C@H](CCCNC(=N)N)NC(=O)[C@H](Cc2c[nH]cn2)NC(=O)[C@H](CCC(=O)O)NC(=O)CNC(=O)[C@H](Cc2c[nH]c3ccccc23)NC(=O)[C@H](CC(=O)O)NC(=O)[C@H](CCC(N)=O)NC(=O)[C@H](Cc2cn(C)c3ccccc23)NC1=O) [Compound 88]	< 100
5.4	Ac-SAYCI[Trp(1-Me)]QDWGEHRC[Sar]EK([γGlu-Gly-γGlu-C18 diacid])-NH2 (disulfide 4-14; SMILES CC[C@H](C)[C@@H]1NC(=O)[C@@H](NC(=O)[C@H](Cc2ccc(O)cc2)NC(=O)[C@H](C)NC(=O)[C@H](CO)NC(C)=O)CSSC[C@@H](C(=O)N(C)CC(=O)N[C@@H](CCC(=O)O)C(=O)N[C@@H](CCCCNC(=O)CC[C@H](NC(=O)CNC(=O)CC[C@H](NC(=O)CCCCCCCCCCCCCCCCC(=O)O)C(=O)O)C(=O)O)C(N)=O)NC(=O)[C@H](CCCNC(=N)N)NC(=O)[C@H](Cc2c[nH]cn2)NC(=O)[C@H](CCC(=O)O)NC(=O)CNC(=O)[C@H](Cc2c[nH]c3ccccc23)NC(=O)[C@H](CC(=O)O)NC(=O)[C@H](CCC(N)=O)NC(=O)[C@H](Cc2cn(C)c3ccccc23)NC1=O) [Compound 106]	< 250
34	Ac-EGSAYCI[Trp(1-Me)]QDWGEHRC[Sar]EGK([AEEA-AEEA-γGlu-C16 diacid])-NH2 (disulfide 6-16; SMILES CC[C@H](C)[C@@H]1NC(=O)[C@@H](NC(=O)[C@H](Cc2ccc(O)cc2)NC(=O)[C@H](C)NC(=O)[C@H](CO)NC(=O)CNC(=O)[C@H](CCC(=O)O)NC(C)=O)CSSC[C@@H](C(=O)N(C)CC(=O)N[C@@H](CCC(=O)O)C(=O)NCC(=O)N[C@@H](CCCCNC(=O)COCCOCCNC(=O)COCCOCCNC(=O)CC[C@H](NC(=O)CCCCCCCCCCCCCCC(=O)O)C(=O)O)C(N)=O)NC(=O)[C@H](CCCNC(=N)N)NC(=O)[C@H](Cc2c[nH]cn2)NC(=O)[C@H](CCC(=O)O)NC(=O)CNC(=O)[C@H](Cc2c[nH]c3ccccc23)NC(=O)[C@H](CC(=O)O)NC(=O)[C@H](CCC(N)=O)NC(=O)[C@H](Cc2cn(C)c3ccccc23)NC1=O) [Compound 104]	< 100
1.5	Ac-ICI[Trp(1-Me)]QDWGEHRCT-NH2 (disulfide 2-12; SMILES CC[C@H](C)[C@H](NC(C)=O)C(=O)N[C@H]1CSSC[C@@H](C(=O)N[C@H](C(N)=O)[C@@H](C)O)NC(=O)[C@H](CCCNC(=N)N)NC(=O)[C@H](Cc2c[nH]cn2)NC(=O)[C@H](CCC(=O)O)NC(=O)CNC(=O)[C@H](Cc2c[nH]c3ccccc23)NC(=O)[C@H](CC(=O)O)NC(=O)[C@H](CCC(N)=O)NC(=O)[C@H](Cc2cn(C)c3ccccc23)NC(=O)[C@H]([C@@H](C)CC)NC1=O) [Compound 4]	< 100
–	H-[dY][Sar]CI[Trp(1-Me)]QDWGEHRCTEA-NH2 (disulfide 3-13; SMILES CC[C@H](C)[C@@H]1NC(=O)[C@@H](NC(=O)CN(C)C(=O)[C@H](N)Cc2ccc(O)cc2)CSSC[C@@H](C(=O)N[C@H](C(=O)N[C@@H](CCC(=O)O)C(=O)N[C@@H](C)C(N)=O)[C@@H](C)O)NC(=O)[C@H](CCCNC(=N)N)NC(=O)[C@H](Cc2c[nH]cn2)NC(=O)[C@H](CCC(=O)O)NC(=O)CNC(=O)[C@H](Cc2c[nH]c3ccccc23)NC(=O)[C@H](CC(=O)O)NC(=O)[C@H](CCC(N)=O)NC(=O)[C@H](Cc2cn(C)c3ccccc23)NC1=O) [Compound 91]	< 100
–	Ac-ICIWQDWGEHRCTEGK([AEEA-AEEA-γGlu-C16 diacid])-NH2 (disulfide 2-12; SMILES CC[C@H](C)[C@H](NC(C)=O)C(=O)N[C@H]1CSSC[C@@H](C(=O)N[C@H](C(=O)N[C@@H](CCC(=O)O)C(=O)NCC(=O)N[C@@H](CCCCNC(=O)COCCOCCNC(=O)COCCOCCNC(=O)CC[C@H](NC(=O)CCCCCCCCCCCCCCC(=O)O)C(=O)O)C(N)=O)[C@@H](C)O)NC(=O)[C@H](CCCNC(=N)N)NC(=O)[C@H](Cc2c[nH]cn2)NC(=O)[C@H](CCC(=O)O)NC(=O)CNC(=O)[C@H](Cc2c[nH]c3ccccc23)NC(=O)[C@H](CC(=O)O)NC(=O)[C@H](CCC(N)=O)NC(=O)[C@H](Cc2c[nH]c3ccccc23)NC(=O)[C@H]([C@@H](C)CC)NC1=O) [Compound 93]	< 500
–	Ac-GEFCI[Trp(1-Me)]QDWGEHRC[Sar]EA-NH2 (disulfide 4-14; SMILES CC[C@H](C)[C@@H]1NC(=O)[C@@H](NC(=O)[C@H](Cc2ccccc2)NC(=O)[C@H](CCC(=O)O)NC(=O)CNC(C)=O)CSSC[C@@H](C(=O)N(C)CC(=O)N[C@@H](CCC(=O)O)C(=O)N[C@@H](C)C(N)=O)NC(=O)[C@H](CCCNC(=N)N)NC(=O)[C@H](Cc2c[nH]cn2)NC(=O)[C@H](CCC(=O)O)NC(=O)CNC(=O)[C@H](Cc2c[nH]c3ccccc23)NC(=O)[C@H](CC(=O)O)NC(=O)[C@H](CCC(N)=O)NC(=O)[C@H](Cc2cn(C)c3ccccc23)NC1=O) [Compound 87]	< 100
–	Ac-ICIWQDWGEHRCTEGK([γGlu-C16 diacid])-NH2 (disulfide 2-12; SMILES CC[C@H](C)[C@H](NC(C)=O)C(=O)N[C@H]1CSSC[C@@H](C(=O)N[C@H](C(=O)N[C@@H](CCC(=O)O)C(=O)NCC(=O)N[C@@H](CCCCNC(=O)CC[C@H](NC(=O)CCCCCCCCCCCCCCC(=O)O)C(=O)O)C(N)=O)[C@@H](C)O)NC(=O)[C@H](CCCNC(=N)N)NC(=O)[C@H](Cc2c[nH]cn2)NC(=O)[C@H](CCC(=O)O)NC(=O)CNC(=O)[C@H](Cc2c[nH]c3ccccc23)NC(=O)[C@H](CC(=O)O)NC(=O)[C@H](CCC(N)=O)NC(=O)[C@H](Cc2c[nH]c3ccccc23)NC(=O)[C@H]([C@@H](C)CC)NC1=O) [Compound 92]	< 1000

— patent US11965039B2, “Compstatin analogues and their medical uses” (priority 2018, dated 2024)
